Laboratory results from paper doi:10.1101/754457, “Architecture of the Mto1/2 microtubule nucleation complex” (bioRxiv, 2019).

B8: 6xHis-TEV-Mto1[bonsai] (Mto1 residues 131-549) (domain or fragment, S. pombe, UniProt O94488 131-549, looked up)
chain: TTDDEQLSPVLTANQGFQSQEQYEEDSYNNYDYTSDPSSPNYISSSLDQLPHLDDEDDLQLTPIKEERNYLHSQDAPTTNALSKKISDILIPASAMKDLKDRKNALAKEFEESQPGSSLTLKEQANVIDNLRKEVFGLKLKCYFLYDQLNKFHDQEVQDIMKQNIDLKTLTMELQRAVAGYEKKISGLESRIKPDQSFNLSTPSPAPSNLITLQSRYSQALSELETTKRAFAALRKEKSKKTNYSVGAYNEDRNVLSNMLDNERREKEALLQELESLRVQLSKKVPMPAKNTDERVIETLQRSNELLRMDISMQNEALLLRKQENDRLVKQVEELTVALNSGKMNAIVEAESSKNELWDSMMVSRMKTQEQSIELTRLYKQLQDIEEDYENKLMRMEQQWREDVDQLQEYVEEITQELQ
notes: Mto1, S. pombe CM1 protein, residues 131-549 of full-length Mto1 (1115 residues); a TEV site lies between the 6xHis tag and Mto1; Dimeric by SEC-MALS; No TEV cleavage is described; also called 6xHis-tagged Mto1[bonsai]; source: Sf9 (MultiBac baculovirus), purified (nickel chelate, Superose 6 SEC); expressed alone or co-expressed with untagged Mto2; not shown: His6, N-terminal, kept

Assays:
[1] = target: the molecule itself; assay: SEC-MALS; Superdex 75 10/300 for protein fragments; NND injected at ∼5 mg/mL (600 µM) and a dilution series, TCD at ∼10 mg/mL (1000 µM) and a dilution series
[2] = target: the molecule itself; assay: ITC; dilution series, 25°C, iTC200; 100 µM NND injected (20 x 2 µL) into 50 mM Tris-HCl pH 8.0, 150 mM NaCl, 2 mM EDTA; dimer dissociation model; dimer to monomers
[3] = target: the molecule itself; assay: cross-linking; intermolecular disulfide between engineered cysteines; SDS-PAGE with and without β-mercaptoethanol
[4] = target: the molecule itself; assay: SEC; SEC-dilution analysis, Superose 6 10/300, 4°C, 100 µL loaded; undiluted ∼9 mg/mL (co-purified Mto1/2[bonsai]), ∼1.5 mg/mL (Mto1[bonsai]), ∼2.5 mg/mL (Mto2), and 10X dilution; fractions by SDS-PAGE and western blot
[5] = target: the molecule itself; assay: SEC-MALS; Superose 6 10/300 for full-length proteins and complexes; injected at ∼4.5 mg/mL (Mto1/2[bonsai]), ∼1.3 mg/mL (Mto1[bonsai]), ∼1.6 mg/mL (Mto2), 1.4 mg/mL (Mto2-134A136A), 1.3 mg/mL (Mto2-134AAA)
[6] = target: B8; assay: SEC; SEC-dilution analysis, Superose 6 10/300, 4°C, 100 µL loaded; undiluted ∼9 mg/mL (co-purified Mto1/2[bonsai]), ∼1.5 mg/mL (Mto1[bonsai]), ∼2.5 mg/mL (Mto2), and 10X dilution; fractions by SDS-PAGE and western blot; conditions: both partners purified
[7] = target: the molecule itself; assay: cross-linking; EDC/Sulfo-NHS zero-length cross-linking with mass spectrometry (CLMS) of co-purified Mto1/2[bonsai] complex; phosphate pH 7.5, 300 mM NaCl, 5% glycerol, 2 h at 18°C

B1: Mto2 Near-N-terminal Domain (NND; Mto2 residues 78-153) (domain or fragment, S. pombe, UniProt Q9USP7 78-153, looked up)
chain: PLYSPSWPSLADANVNSMKSNNAIQEHKAAKFVSEKSLEKVSTADNNLVLQELENLRERLNQVELQLSERPSSYLG
notes: Mto2, S. pombe, residues 78-153 (NND); Weak homodimer that dissociates upon dilution; also called wild-type NND; source: E. coli BL21(DE3) pRIL, purified (glutathione-sepharose, TEV cleavage, SEC); not shown: GST, N-terminal, cleaved
Question: For B1, which “stoichiometry N” value [1] is on record?
Answer: 2

Question: What about the Kd [2] of the same binder?
Answer: 15 µM

B2: NND-N123C (domain or fragment, S. pombe, UniProt Q9USP7 78-153, looked up)
chain: PLYSPSWPSLADANVNSMKSNNAIQEHKAAKFVSEKSLEKVSTADCNLVLQELENLRERLNQVELQLSERPSSYLG
notes: Mto2, S. pombe, residues 78-153 (NND) with N123C; Disulfide-linked dimer under non-reducing conditions; source: E. coli BL21(DE3) pRIL, purified (glutathione-sepharose, TEV cleavage, SEC); not shown: GST, N-terminal, cleaved
Question: Does B2 bind [3]?
Answer: binds

B3: NND-R147C (domain or fragment, S. pombe, UniProt Q9USP7 78-153, looked up)
chain: PLYSPSWPSLADANVNSMKSNNAIQEHKAAKFVSEKSLEKVSTADNNLVLQELENLRERLNQVELQLSECPSSYLG
notes: Mto2, S. pombe, residues 78-153 (NND) with R147C; Disulfide-linked dimer under non-reducing conditions; source: E. coli BL21(DE3) pRIL, purified (glutathione-sepharose, TEV cleavage, SEC); not shown: GST, N-terminal, cleaved
Question: Does B3 bind [3]?
Answer: binds

B4: 6xHis-tagged Mto2 (natural protein, S. pombe, UniProt Q9USP7 1-397, looked up)
chain: MSEHNYQSDREVAEDPFLNYEASANQLSSNSRESTPRGSPWRAGMRSASLMTEPLEDSMYSDNNYLDNGVSFTKDENPLYSPSWPSLADANVNSMKSNNAIQEHKAAKFVSEKSLEKVSTADNNLVLQELENLRERLNQVELQLSERPSSYLGYHNNLSPYRSPNSYPSLLPSTHSPHSPAPLSTMQTALMRLRTYHPSPIILKPVEQAVNHAITLVNTSPSSVVDALCRSLAELCLGLVQEAIDASILSQQESSNSLDLVRHTPPLNYTSSVDSSPQRMASDSYGRPSLHLNDPFPSVDLQSNELSHHNVRTTLFSDDSRFHSKIHTHSTPPSQMYSAASHFRYRSDPSTRHVSNSTNKSSLHPSPTSLRVAHPIIPQRASPASQSFPSLQDTPSP
notes: Forms a range of multimers; Construct described in Leong et al., 2019; also called wild-type Mto2; 6xHis-Mto2; source: Sf9 (MultiBac baculovirus), purified (nickel chelate, Superose 6 SEC); also Sf9 co-infected with GST-Mto1[bonsai] virus, in lysate
Question: Does B4 bind [4]?
Answer: binds

B5: Mto1/2[bonsai] complex (complex, S. pombe)
chain 1: TTDDEQLSPVLTANQGFQSQEQYEEDSYNNYDYTSDPSSPNYISSSLDQLPHLDDEDDLQLTPIKEERNYLHSQDAPTTNALSKKISDILIPASAMKDLKDRKNALAKEFEESQPGSSLTLKEQANVIDNLRKEVFGLKLKCYFLYDQLNKFHDQEVQDIMKQNIDLKTLTMELQRAVAGYEKKISGLESRIKPDQSFNLSTPSPAPSNLITLQSRYSQALSELETTKRAFAALRKEKSKKTNYSVGAYNEDRNVLSNMLDNERREKEALLQELESLRVQLSKKVPMPAKNTDERVIETLQRSNELLRMDISMQNEALLLRKQENDRLVKQVEELTVALNSGKMNAIVEAESSKNELWDSMMVSRMKTQEQSIELTRLYKQLQDIEEDYENKLMRMEQQWREDVDQLQEYVEEITQELQ
chain 2: MSEHNYQSDREVAEDPFLNYEASANQLSSNSRESTPRGSPWRAGMRSASLMTEPLEDSMYSDNNYLDNGVSFTKDENPLYSPSWPSLADANVNSMKSNNAIQEHKAAKFVSEKSLEKVSTADNNLVLQELENLRERLNQVELQLSERPSSYLGYHNNLSPYRSPNSYPSLLPSTHSPHSPAPLSTMQTALMRLRTYHPSPIILKPVEQAVNHAITLVNTSPSSVVDALCRSLAELCLGLVQEAIDASILSQQESSNSLDLVRHTPPLNYTSSVDSSPQRMASDSYGRPSLHLNDPFPSVDLQSNELSHHNVRTTLFSDDSRFHSKIHTHSTPPSQMYSAASHFRYRSDPSTRHVSNSTNKSSLHPSPTSLRVAHPIIPQRASPASQSFPSLQDTPSP
notes: Mto1, S. pombe, residues 131-549 of full-length Mto1 (Mto1[bonsai]); Mto2, S. pombe, untagged in the co-expression; Near-equal stoichiometry of the two chains; a range of multimer sizes, so no copy numbers; also called 6xHis-tagged Mto1/2[bonsai]; recombinant Mto1/2[bonsai]; source: Sf9 (MultiBac baculovirus), co-expressed, purified (nickel chelate, Superose 6 SEC); not shown: His6, N-terminal, …
Question: Does B5 bind [5]?
Answer: binds

B6: Mto2, untagged, co-expressed with 6xHis-Mto1[bonsai] (natural protein, S. pombe, UniProt Q9USP7 1-397, looked up)
chain: MSEHNYQSDREVAEDPFLNYEASANQLSSNSRESTPRGSPWRAGMRSASLMTEPLEDSMYSDNNYLDNGVSFTKDENPLYSPSWPSLADANVNSMKSNNAIQEHKAAKFVSEKSLEKVSTADNNLVLQELENLRERLNQVELQLSERPSSYLGYHNNLSPYRSPNSYPSLLPSTHSPHSPAPLSTMQTALMRLRTYHPSPIILKPVEQAVNHAITLVNTSPSSVVDALCRSLAELCLGLVQEAIDASILSQQESSNSLDLVRHTPPLNYTSSVDSSPQRMASDSYGRPSLHLNDPFPSVDLQSNELSHHNVRTTLFSDDSRFHSKIHTHSTPPSQMYSAASHFRYRSDPSTRHVSNSTNKSSLHPSPTSLRVAHPIIPQRASPASQSFPSLQDTPSP
notes: Mto2, S. pombe; for coexpression the tag was present only on Mto1[bonsai]; Construct described in Leong et al., 2019; also called Mto2 (of the Mto1/2[bonsai] complex); source: Sf9 (MultiBac baculovirus), co-expressed and co-purified with 6xHis-Mto1[bonsai]
Question: Which results are given for B6?
Answer: stoichiometry N [6]: ~1; binding result [7]: binds

B7: Mto2 Twin-Cysteine Domain (TCD; Mto2 residues 180-265) (domain or fragment, S. pombe, UniProt Q9USP7 180-265, looked up)
chain: PAPLSTMQTALMRLRTYHPSPIILKPVEQAVNHAITLVNTSPSSVVDALCRSLAELCLGLVQEAIDASILSQQESSNSLDLVRHTP
notes: Mto2, S. pombe, residues 180-265 (TCD); Residues 180-250 (chain A) and 180-248 (chain B) are built in the structure; source: E. coli BL21(DE3) pRIL, purified (glutathione-sepharose, TEV cleavage, SEC); selenomethionine-labelled protein from B834(DE3); not shown: GST, N-terminal, cleaved
Question: B7 was tested. Which “stoichiometry N” value [1] did it give?
Answer: 2

Question: For B8, which “stoichiometry N” value [5] is on record?
Answer: 2
